How the values were obtained:
DB DLBCL cell line = test: Growth of DB diffuse large B-cell lymphoma cell line in vitro; assay type: cell-based
Protocol: Diffuse large B-cell lymphoma (DLBCL) is the most common type of non-Hodgkin's lymphoma. […] (See Lee et al., Cancer Sci. 100:920-926, 2009.) However, how DLBCL cells would respond to Notch2 inhibition was not known. Therefore, we investigated the effect of anti-NRR2 on five DLBCL cell lines. The DLBCL lines listed on the right of FIG. 26 were grown in replicates for three days in wells of a 384-well plate. The cell cultures included the indicated concentrations of anti-NRR2 (referred to as “anti-Notch2” in FIGS. 26 and 27), which corresponded to three-fold serial dilutions starting at 10 μg/ml. Growth was assessed using Cell Titer Glo assays (Promega), plotted as the percentage of cell viability relative to treatment with an isotype control antibody. The data points in FIG. 26 represent average values obtained from individual wells for each cell line at the indicated antibody concentrations. […] The DB line was grown in wells of a 12-well plate, and the cultures were treated with DMSO, the gamma-secretase inhibitor DAPT, anti-gD isotype control antibody or anti-NRR2 at the indicated concentrations. Growth was assessed by counting viable cells (Vi-CELL, Beckman Coulter, Fullerton, Calif.) at days 2, 3 and 5 after inoculating and treating the cultures. Values represent the mean of measurements from three independent cultures, plus/minus the standard deviation.

[1] = system: intestinal cell differentiation; test: Histology and immunohistochemistry of mouse intestine tissue; assay type: in vivo; conditions: 5 mg/kg, one day after final dosing (FIGS. 15C and 24B)
From the text: (§1) (A) Total body weight change (mean+/−standard deviation) vs. time. […] Arrows mark the days of dosing. (B) Immunohistochemical analyses of small intestines. […] In each row as indicated, staining is shown for haemotoxylin and eosin (H & E), Alcian Blue for mucin and to mark secretory goblet cells, lysozyme to mark Paneth cells, Ki-67 for proliferation and Hes1 as a Notch downstream target. See FIGS. 19 and 20 for analyses of the large intestine at day 7 and of the small intestine at day 2, respectively. Bar=40 μm. (C) Comparison of Notch1- versus Notch2-specific inhibition on small intestinal cell differentiation. Small intestines from the study described in (A) were prepared for Alcian Blue and Ki-67 one day after the final dosing with α-gD, α-NRR1 or α-NRR2, as indicated. Bar=50 μm.
Formalin-fixed and paraffin-embedded mouse small intestine tissues were sectioned at 3 micron thickness. Histochemical identification of intestinal cell types was performed with Alcian blue as recommended by the manufacturer (PolyScientific). For anti-Ki67 staining, sections were pretreated with Target Retrieval Solution (S1700, DAKO), and incubated with rabbit anti-Ki67 (1:200, clone SP6, Neomarkers). Secondary goat anti-rabbit at 7.5 μg/ml (Vector labs) was detected with the Vectastain ABC Elite Kit (Vector labs). Ki67 stained sections were counterstained with Mayer's haemotoxylin. For anti-lysozyme staining, sections were processed on the Discovery XT platform (Ventana Medical Systems, Inc.) using CC1m epitope recovery conditions, OmniMap-rabbit detection and Ventana haemotoxylin II/with bluing counterstain. For HES-1 staining, anti-rat HES-1 (clone NM1, MBL, International) was followed by TSA-HRP.
The effect of inhibiting both Notch1 and Notch2 on intestinal cell fate determination was also investigated. […] The intestines were harvested and stained with H&E to reveal the crypt morphology. […] Further experimentation confirmed this observation.

Notch2 signaling = test: Co-culture Notch reporter assay, Notch2 signaling (U87MG cells + Jag1 cells); assay type: cell-based
Protocol: NIH-3T3 cells stably transfected with Jag1 were used to induce Notch signaling in NIH-3T3 cells stably transfected with Notch1 (except for “−Jag1”, which used untransfected NIH-3T3 cells in place of the Jag1-expressing cells). […] NIH-3T3 cells stably transfected with Jag1 were used to induce Notch signaling in U87MG cells, which express high levels of Notch2. The assay was performed as described in (A). […] The assay was performed as in (A) except that the receptor-expressing cells were generated by transient transfection of plasmids expressing the indicated Notch1 receptors.
Co-culture assay in U87MG cells, as described in FIG. 10B.
NIH-3T3 cells either stably transfected with Notch 1 or transiently transfected with plasmids containing other Notch receptors were co-transfected with a Notch-responsive TP-1 (12× CSL) Firefly luciferase reporter and a constitutively active Renilla Luciferase reporter (pRL-CMV, Promega) to control for transfection efficiency. Cells are allowed to recover from the transfection from 6 hours to overnight. Treatments of antibodies and NIH-3T3 cells stably transfected with ligand are used to stimulate the receptor cells. After 20 hours, firefly and Renilla luciferase are measured with Dual Glo Luciferase Assay system (Promega). Eight replicates were analyzed for each condition by dividing the Firefly signal by the Renilla signal to control for transfection efficiency. The mean and standard deviation were calculated and values were normalized to calculated values for co-culture stimulated with NIH-3T3 cells without ligand transfected.

LOX-IMVI melanoma cells = test: Cell Titer Glo viability of melanoma cell line LOX-IMVI; assay type: cell-based, human; conditions: six days, antibodies 20 mg/ml, DAPT 5 μM, ± Jagged-1
Protocol: Human melanoma cell lines SK23 and LOX-IMVI were plated in medium containing 2% FBS at low density (4000 cells/well for SK23, 2500 cells/well for LOX-IMVI) in 96 well plates that were coated without (−jag-1) or with Jagged-1 ligand (+jag-1) (R&D Systems, Minneapolis, Minn.). […] An equal volume of DMSO served as the vehicle control, whereas an equal concentration of anti-gD HuB6 phage antibody served as the isotype control antibody. Cell Titer Glo assays (Promega, Madison, Wis.) were performed six days after plating. […] In FIGS. 25A and 25B, cell viability (y-axis) is expressed relative to the values from the DMSO vehicle, −jag-1 control wells.

Notch2 NRR = test: ELISA binding to purified Notch2 NRR proteins; conditions: purified human or mouse protein, up to highest antibody concentration tested
From the text: The N-myc-Notch transgenes were expressed under control of the inducible tet promoter; bottom row, control expression in the absence of induction with doxycycline (−Dox); top row, induced expression following addition of doxycycline (+Dox); note that the K1-CHO line endogenously expresses Notch2, which is detected by anti-NRR2 in the presence and absence of doxycycline (for example, compare panels 7 and 10).
Anti-Flag antibody was used to capture Flag-Tagged NRR protein from all four Notch receptors in a black walled, high binding plate (Greiner). NRR antibody and E25 control antibodies were bound to the NRR proteins and washed away with PBS. An Alkaline Phosphate conjugated anti-human (H+L) secondary antibody (Jackson ImmunoResearch) was used to detect bound anti-NRR and E25. Unbound secondary was washed away and AP was detected with PNPP substrate (Pierce).

[2] = Total body weight change in antibody-dosed mice; assay type: in vivo, mouse
From the text: as §1
(B) Immunohistochemical analyses of small intestines from mice treated as in (A), using Alcian Blue for mucin to mark secretory goblet cells.

B1: anti-NRR2: affinity matured form of Antibody D, phage library-derived human anti-Notch2 NRR monoclonal antibody (antibody, V domains shown)
VH: EVQLVESGGGLVQPGGSLRLSCAASGYTFSSYGMSWVRQAPGKGLEWVSYIYPYSGATYYADSVKGRFTISADTSKNTAYLQMNSLRAEDTAVYYCARHSGYYRISSAMDVWGQGTLVTVSA
VL: DIQMTQSPSSLSASVGDRVTITCRASQNIKRFLAWYQQKPGKAPKLLIYGASTRESGVPSRFSGSGSGTDFTLTISSLQPEDFATYYCQQYYRSPHTFGQGTKVEIKR
Question: What does the source list for B1?
Answer: growth over time (viable cell counts) (DB DLBCL cell line; days 2, 3 and 5): suppresses the growth; growth (cell viability relative to isotype control) (DB DLBCL cell line; three days, three-fold dilutions from 10 μg/ml): strongly inhibited; effects on small intestine (goblet cells, Alcian Blue) [1]: did not cause any detectable effects; effect on Notch2 reporter signaling (Notch2 signaling; Jag1-induced, DAPT 5 μM): inhibition of Notch2 signaling; inhibition of signaling induced through Jag1, Jag2, D111 and D114 (Notch2 signaling; all Notch ligands tested): inhibited signaling; cell viability (LOX-IMVI melanoma cells): decrease in viability; binding to Notch2 NRR proteins (Notch2 NRR): bound specifically; total body weight change ([2]; first experiment (FIG. 15A)): weight gains; effect on weight ([2]; second experiment, 5 mg/kg (FIG. 24A)): little or no effect

From patent US8404239B2, “Anti-Notch2 NRR antibodies” (Genentech, Inc., priority 2008, dated 2013)
